From patent US20100004432, “APTAMER AGAINST MIDKINE AND USE THEREOF” (RIBOMIC INC., published 2010)
Changes are numbered by the printed parent chain.

Columns and labels:
Conditions in all cases: tags: expressed in yeast
[1] = target: T1, midkine (full-length) (Homo sapiens, UniProt P21741 P21741:23-143); assay: cell_activity; UMR106 migration inhibition, 500 nM RNA
T1 sequence: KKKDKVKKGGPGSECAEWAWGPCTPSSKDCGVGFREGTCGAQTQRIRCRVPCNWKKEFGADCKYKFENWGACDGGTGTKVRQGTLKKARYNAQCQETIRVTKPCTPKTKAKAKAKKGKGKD

[2] = target: T1, midkine (full-length); assay: cell_activity; 100 nM RNA
Description: (§1) 30 μL of 1.5 μM midkine was applied to the outer surface of the membrane of Chemotaxicell (membrane pore diameter 8 μm, manufactured by Kurabo) to immobilize the midkine to the outer surface of the membrane. The midkine-immobilized Chemotaxicell was placed on a 24-well culture plate containing 500 μL of a medium (supplemented with 0.3% bovine serum albumin, Dulbecco's Modified Eagle's medium) supplemented with each RNA aptamer added thereto at 100 nM. 200 μL of UMR106 cells were placed in the inner layer of the Chemotaxicell chamber at a density of 1×10⁶ cells/mL, and cultured at 37° C. for 4 hours. The cells remaining in the inner layer of the Chemotaxicell chamber were removed, and the cells that had infiltrated and adhered to the midkine-applied surface were fixed with methanol. The Chemotaxicell chamber was immersed in a 1% aqueous solution of Crystal Violet for 30 minutes to stain the cells. After the Chemotaxicell chamber was washed with distilled water and dried, the pigment was extracted with a mixed solution of 200 μL of 1% SDS and 1% triton X100. 150 μL of the extract was transferred to a 96-well microplate, and its absorbance at 590 nm was determined.
(§2) The aptamer shown by SEQ ID NO:5 is 77 nucleotides long, having the 2′-position of the ribose of the pyrimidine nucleotide fluoro-substituted. To enable the chemical synthesis, to reduce the toxicity, and to improve the stability in the blood, miniaturization and stabilization of this aptamer were performed. The operations of miniaturization and stabilization were performed on the basis of the secondary structure estimated by the MFOLD program, and the activity was evaluated by a cell migration inhibition experiment. The RNA concentration in the cell migration inhibition experiment was 100 nM or 500 nM. Since some errors occur in experimental results depending on cell condition, a previously assayed sample was included as a positive control in each measurement.

[3] = target: T1, midkine (full-length); assay: cell_activity; 500 nM RNA
Description: as §1, with “Chem. 276 (19), 15868-15875, 2001). […] 30 μL” for “30 μL”
as §2, with “SEQ ID NO:4 is 77” for “SEQ ID NO:5 is 77”, “having the 2′ position of the” for “having the 2′-position of the”, “pyrimidine nucleotide thereof fluoro-substituted. To” for “pyrimidine nucleotide fluoro-substituted. To”, “inhibition experiment. In the cell” for “inhibition experiment. The RNA concentration in the cell”, “migration inhibition experiment, the RNA concentration was 100” for “migration inhibition experiment was 100”

[4] = target: T1, midkine (full-length); assay: cell_activity; UMR106 migration inhibition, 500 nM RNA; remark: listed apart in the source
Description: as §1, with “Chem. 276 (19), 15868-15875, 2001). […] 30 μL” for “30 μL”
as §2, with “SEQ ID NO:4 is 77” for “SEQ ID NO:5 is 77”, “having the 2′ position of the” for “having the 2′-position of the”, “pyrimidine nucleotide thereof fluoro-substituted. To” for “pyrimidine nucleotide fluoro-substituted. To”, “inhibition experiment. In the cell” for “inhibition experiment. The RNA concentration in the cell”, “migration inhibition experiment, the RNA concentration was 100” for “migration inhibition experiment was 100”

[5] = target: T1, midkine (full-length); assay: as above; remark: listed apart in the source
Description: as §1, §2

B1: SEQ ID NO:45-1 (ssRNA)
RNA: GGGAGAGGAGAAGAGGAAGUGCACAGGGGUUGGUGUCGGGUGCAC
modifications: 5' PEG2000-C12; 3' idT; 2'-F pyrimidines; 2'-OMe all A in 5' single-stranded part
- activity [1]: 100 % of SEQ ID NO:40

B2: SEQ ID NO:43 (ssRNA)
RNA: GGGAGAGGAGAAGAGGAGUGCACAGGGGUUGGUGUCGGGUGCACAGUAUAAG
modifications: 2'-F pyrimidines
- activity [2]: 42 % of SEQ 5 inhibition

B3: SEQ ID NO:31 (ssRNA)
RNA: GGGAGAGGAGAAGAGGAAGUGUGCACAGGGGUUGGUGUCGGGUGCAUACAGUAUAAGAUAGAGGACA
modifications: 2'-F pyrimidines
- activity [2]: 94 % of SEQ 5 inhibition

Binder: GGGAGAGGAACGACGAGGAGUAGCCGGAAAGAAGGCGGCGUC (ssRNA, 2'-F pyrimidines) [SEQ ID NO:20]
- activity [3]: 97 % of SEQ 4 inhibition

B4: SEQ ID NO:20-12 (ssRNA)
RNA: GGGAGAGGAACGACGAGGAGUAGCCGGAAAGAAGGCGGCGUC
modifications: 2'-F pyrimidines; 20-5 pattern plus 2'-OMe: c(F)g(M)a(M)c(F), gga(M)aa(M)g(M)aagg, 3' g(M)u(F)c(F)
- activity [4]: 53 % of SEQ ID NO:4

B5: SEQ ID NO:20-11 (ssRNA)
RNA: B4 RNA
modifications: 2'-F pyrimidines; 20-5 pattern plus 2'-OMe: c(F)g(M)a(M)c(F), gga(M)aa(M)gaagg, c(F)g(M)g(M)c(F)g(M)u(F)c(F)
- activity [4]: 76 % of SEQ ID NO:4

Binder: GGGAGAGGAACGACGAGGAGUAGCCGGAAAGAAGGCGGCGUC (ssRNA, 2'-F pyrimidines; 2'-OMe G in loop: c(F)c(F)g(M)g(M)aaag(M)aagg) [SEQ ID NO:20-4]
- activity [4]: 60 % of SEQ ID NO:4

Binder: GGGAGAGGAACGACGAGGAGUAGCCGGAAAGAAGGCGGCGUC (ssRNA, 2'-F pyrimidines; 20-5 pattern plus 2'-OMe A in loop: gga(M)aa(M)gaagg) [SEQ ID NO:20-8]
- activity [4]: 99 % of SEQ ID NO:4

B6: SEQ ID NO:20-13 (ssRNA)
RNA: B4 RNA
modifications: 2'-F pyrimidines; 20-5 pattern plus 2'-OMe: c(F)g(M)a(M)c(F), gga(M)aa(M)gaag(M)g, 3' g(M)u(F)c(F)
- activity [4]: 89 % of SEQ ID NO:4

B7: SEQ ID NO:20-5 (ssRNA)
RNA: B4 RNA
modifications: 2'-F pyrimidines; 20-1 pattern (2'-OMe 5' single strand) plus 2'-OMe A in bulge: ga(M)gga(M)gu(F)a(M)g
- activity [4]: 88 % of SEQ ID NO:4

B8: SEQ ID NO:20-3 (ssRNA)
RNA: B4 RNA
modifications: 2'-F pyrimidines; 2'-OMe purines of second stem: gggagaggaac(F)gac(F)gaggagu(F)ag(M)c(F)c(F)ggaaagaag(M)g(M)c(F)ggc(F)gu(F)c(F)
- activity [4]: 60 % of SEQ ID NO:4

Binder: GGGAGAGGAACGACGAGGAGUAGCCGGAAAGAAGGCGGCGUC (ssRNA, 2'-F pyrimidines; 2'-OMe on all purines of the 5' single-stranded part g1-a10) [SEQ ID NO:20-1]
- activity [4]: 109 % of SEQ ID NO:4

B9: SEQ ID NO:20-10 (ssRNA)
RNA: B4 RNA
modifications: 2'-F pyrimidines; 20-5 pattern plus 2'-OMe near 3' end: ggc(F)g(M)g(M)c(F)gu(F)c(F)
- activity [4]: 86 % of SEQ ID NO:4

Binder: GGGAGAGGAACGACGAGGAGUAGCCGGAAAGAAGGCGGCGUC (ssRNA, 2'-F pyrimidines; 20-1 pattern plus 2'-OMe G in bulge: gag(M)g(M)ag(M)u(F)ag) [SEQ ID NO:20-6]
- activity [4]: 69 % of SEQ ID NO:4

B10: SEQ ID NO:20-2 (ssRNA)
RNA: B4 RNA
modifications: 2'-F pyrimidines; 2'-OMe purines of first stem: gggagaggaac(F)g(M)a(M)c(F)g(M)aggagu(F)agc(F)c(F)ggaaagaaggc(F)ggc(F)g(M)u(F)c(F)
- activity [4]: 84 % of SEQ ID NO:4

B11: SEQ ID NO:20-9 (ssRNA)
RNA: B4 RNA
modifications: 2'-F pyrimidines; 20-5 pattern plus 2'-OMe first stem: c(F)g(M)a(M)c(F)g and 3' g(M)u(F)c(F)
- activity [4]: 130 % of SEQ ID NO:4

Binder: GGGAGAGGAACGACGAGGAGUAGCCGGAAAGAAGGCGGCGUC (ssRNA, 2'-F pyrimidines; 20-1 pattern plus 2'-OMe A in loop: gga(M)aa(M)gaagg) [SEQ ID NO:20-7]
- activity [4]: 88 % of SEQ ID NO:4

B12: SEQ ID NO:36 (ssRNA)
RNA: GGGAGAGGAGAAGAGGAAGUGCACAGGGGUUGGUGUCGGGUGCACAGUAUAAG
modifications: 2'-F pyrimidines
- activity [2]: 91 % of SEQ 5 inhibition

B13: SEQ ID NO:36-1 (ssRNA)
RNA: B12 RNA
modifications: 2'-F pyrimidines; 2'-OMe on all of 5' single strand (nt 1-18)
- activity [2]: 60 % of SEQ 5 inhibition

B14: SEQ ID NO:35 (ssRNA)
RNA: GGGAGAGGAGAAGAGGAAGUGUGCACAGGGGUUGGUGUCGGGUGCAUACAG
modifications: 2'-F pyrimidines
- activity [2]: 90 % of SEQ 5 inhibition

Binder: GGGACGAGGAGUAGCCGGAAAGAAGGCGGCGUC (ssRNA, 2'-F pyrimidines) [SEQ ID NO:22]
- activity [3]: 70 % of SEQ 4 inhibition

Binder: GGGAGAGGAGAAGAGGAAGGCACAGGGGUUGGUGUCGGGUGCCAG (ssRNA, 2'-F pyrimidines) [SEQ ID NO:39]
- activity [2]: 52 % of SEQ 5 inhibition

Binder: GGGAGAGGAACGACGAGGAGUAGCCGAAAGGCGGCGUC (ssRNA, 2'-F pyrimidines) [SEQ ID NO:23]
- activity [3]: 66 % of SEQ 4 inhibition

Binder: GGGAGAGGAACGACGAGGAGUAGCCUUCGGGCGGCGUC (ssRNA, 2'-F pyrimidines) [SEQ ID NO:24]
- activity [3]: 65 % of SEQ 4 inhibition

B15: SEQ ID NO:30 (ssRNA)
RNA: GGAGAAGAGGAAGUGUGCACAGGGGUUGGUGUCGGGUGCAUACAGUAUAAGAUAGAGGACAGGAAUGAGGA
modifications: 2'-F pyrimidines
- activity [2]: 44 % of SEQ 5 inhibition

Binder: GGGAGAGGAACGACGAGAACAGCCGGAAAGAAGGCGGCGUC (ssRNA, 2'-F pyrimidines) [SEQ ID NO:25]
- activity [3]: 81 % of SEQ 4 inhibition

Binder: GGGAGAGGAACGACGAGAGUAGCCGGAAAGAAGGCGGCGUC (ssRNA, 2'-F pyrimidines) [SEQ ID NO:26]
- activity [3]: 18 % of SEQ 4 inhibition

Binder: GGGAGAGGAACGACGAGGGUAGCCGGAAAGAAGGCGGCGUC (ssRNA, 2'-F pyrimidines) [SEQ ID NO:27]
- activity [3]: 78 % of SEQ 4 inhibition

Binder: GGCGAGGAGUAGCCGGAAAGAAGGCGGCGCC (ssRNA, 2'-F pyrimidines) [SEQ ID NO:28]
- activity [3]: 71 % of SEQ 4 inhibition

Binder: GACGAGGAGUAGCCGGAAAGAAGGCGGCGUC (ssRNA, 2'-F pyrimidines) [SEQ ID NO:29]
- activity [3]: 74 % of SEQ 4 inhibition

B16: SEQ ID NO:61-3 (ssRNA)
RNA: GGGAAGGAGGAAGUGCACAGGGGUUGGUGUCGGGUGCAC
modifications: g(F)g(F)g(F)a(M)a(M)g(F)g(F)a(M)g(F)g(F)a(M)a(M)g(M)u(F)g(M)c(F)a(M)c(F)a(M)g(F)g(M)g(M)g(M)u(F)u(F)g(M)g(M)u(F)g(M)u(F)c(F)g(F)g(F)g(M)u(F)g(M)c(F)a(M)c(F); M 2'-OMe, F 2'-F
- activity [5]: 80 % of SEQ ID NO:40

B17: SEQ ID NO:61-4 (ssRNA)
RNA: B16 RNA
modifications: ggga(M)a(M)gga(M)gga(M)a(M)g(M)u(F)g(M)c(F)a(M)c(F)aggg(M)g(M)u(F)u(F)g(M)g(M)u(F)g(M)u(F)c(F)gggu(F)g(M)c(F)a(M)c(F); M 2'-OMe, F 2'-F
- activity [5]: 86 % of SEQ ID NO:40

Binder: GGGAAGGAGGAAGUGCACAGGGGUUGGUGUCGGGUGCAC (ssRNA, as 61-4 but a(M)g(M)gg(M)g(M) in place of aggg(M)g(M)) [SEQ ID NO:61-8]
- activity [5]: 54 % of SEQ ID NO:40

Binder: GGGAAGGAGGAAGUGCACAGGGGUUGGUGUCGGGUGCAC (ssRNA, as 61-4 plus PEG30k at both ends) [SEQ ID NO:61-6]
- activity [5]: 57 % of SEQ ID NO:40

Binder: GGGAAGGAGGAAGUGCACAGGGGUUGGUGUCGGGUGCAC (ssRNA, 5' PEG2000; as 61-4 but a(M)gg(M)g(M)g(M) and ggg(M)u(F)) [SEQ ID NO:61-9]
- activity [5]: 39 % of SEQ ID NO:40

Binder: GGGAAGGAGGAAGUGCACAGGGGUUGGUGUCGGGUGCAC (ssRNA, as 61-4 plus 2'-OMe: c(F)g(M)g(M)gu(F) near 3' end) [SEQ ID NO:61-7]
- activity [5]: 46 % of SEQ ID NO:40

Binder: GGGAAGGAGGAAGUGCACAGGGGUUGGUGUCGGGUGCAC (ssRNA, as 61-4 plus 5' branched PEG40k and 3' idT) [SEQ ID NO:61-5]
- activity [5]: 40 % of SEQ ID NO:40

B18: SEQ ID NO:41 (ssRNA)
RNA: GGGAAGGAGAAGAGGAAGUGCACAGGGGUUGGUGUCGGGUGCACAGUAUAAG
modifications: 2'-F pyrimidines
- activity [2]: 97 % of SEQ 5 inhibition

B19: SEQ ID NO:42 (ssRNA)
RNA: B2 RNA with A12G, G13A, A14G, G16A
modifications: 2'-F pyrimidines
- activity [2]: 110 % of SEQ 5 inhibition

B20: SEQ ID NO:33 (ssRNA)
RNA: GGAGAAGAGGAAGUGUGCACAGGGGUUGGUGUCGGGUGCAUACAGUAUAAGAUAGAGGACA
modifications: 2'-F pyrimidines
- activity [2]: 40 % of SEQ 5 inhibition

B21: SEQ ID NO:32 (ssRNA)
RNA: GGGAGAGGAGAAGAGGAAGUGUGCACAGGGGUUGGUGUCGGGUGCAUACAGUAUAAG
modifications: 2'-F pyrimidines
- activity [2]: 100 % of SEQ 5 inhibition
